Eight molecules from patent publication US20240327505A1 (published 2024) can be followed below.

The chains are these.
B1: AB-009221 (antibody, V domains shown)
VH: EVQLVESGGGLVQPGGSLRLSCAASGFTVSSNYMSWVRQAPGKGLEWVSVIYSGGSTYYADSVKGRFTISRHNSKNTLYLQMNSLRAEDTAVYYCARDRNAFDIWGQGTMVIVSS
VL: DIQMTQSPSSLSASVGDRVSITCQASQDISNDLNWYQQKPGKAPKLLVYDASKLETGVPPRFSGSGSGTDFTFTISSLQPEDIATYYCQQYDNLPLYSFGQGTKLEIK
B2: AB-009269 (antibody, V domains shown)
VH: QVQLVQSGAEVKKPGASVKVSCKASGYTFTSYGISWVRQAPGQGLEWMGWISAYNGNTNYAQKLQGRVTMTTDTSTSTAYMELRSLRSDDTAVYYCAREGDCSGGSCYSGYYYYYGMDVWGQGTTVTVSS
VL: EIVLTQSPATLSLSPGERATLSCRASQSVSSYLAWYQQKPGQAPRLLIYDASNRATGIPARFSGSGSGTDFTLTISSLEPEDFAVYYCQQRSNWGTFGPGTKVDIK
B3: AB-009270 (antibody, V domains shown)
VH: QMQLVQSGPEVKKPGTSVKVSCKASGFTFTSSAMQWVRQARGQRLEWIGWIVVGSGNTNYAQKFQERVTITRDMSTSTAYMELSSLRSEDTAVYYCAVNYCSSTSCYDAFDIWGQGTMVTVSS
VL: not shown
B4: AB-009620 (antibody, V domains shown)
VH: QITLKESGPTLVKPTQTLTLTCTFSGFSLSTSGVGVGWIRQPPGKALEWLALIYWDDDKRYSPSLKSRLTITKDTSKNQVVLTMTNMDPVDTATYYCAHHEVATVFDYWGQGTLVTVSS
VL: QSALTQPASVSGSPGQSITISCTGTSSDVGAYNYVSWYQQHPGKAPKLMIYEVSNRPSGVSNRFSGSKSGNTASLTISGLQAEDEADYYCSSYTSSSTVFGGGTKLTVL
B5: AB-009769 (antibody, V domains shown)
VH: EVQLVESGGGLVQPGGSLRLSCAASGFTFSSYWMSWVRQAPGKGLEWVANIKQDGSEKYYVDSVKGRFTISRDNAKNSLYLQMNSLRAEDTAVYYCARSPEVLWFGDPVLDNWFDPWGQGTLVTVSS
VL: SYELTQPPSVSVSPGQTARITCSGDALPKQYAYWYQQKPGQAPVLVIYKDSERPSGIPERFSGSSSGTTVTLTISGVQAEDEADYYCQSADSSGTYPVVFGGGTKLTVL
B6: AB-009615 (antibody, V domains shown)
VH: QVQLVESGGGVVQPGRSLRLSCAASGFTFSSYGMHWVRQAPGKGLEWVAVIWYDGSNKYYADSVKGRFTISRDNSKNTLYLQMNSLRAEDTAVYYCAKVGSPYCSGGSCYSGYFDYWGQGTLVTVSS
VL: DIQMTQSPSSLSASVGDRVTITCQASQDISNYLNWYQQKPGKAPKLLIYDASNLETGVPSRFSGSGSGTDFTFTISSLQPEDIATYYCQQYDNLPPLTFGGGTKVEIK
B7: AB-009760 (antibody, V domains shown)
VH: EVQLVQSGAEVKKPGESLKISCKGSGYSFTSYWIGWVRQMPGKGLEWMGIIYPGDSDTRYSPSFQGQVTISADKSISTAYLQWSSLKASDTAMYYCARSRSSDYFDYWGQGTLVTVSS
VL: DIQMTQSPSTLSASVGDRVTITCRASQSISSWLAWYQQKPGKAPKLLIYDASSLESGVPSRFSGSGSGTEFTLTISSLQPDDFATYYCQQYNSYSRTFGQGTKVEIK
B8: AB-009661 (antibody, V domains shown)
VH: QVQLVESGGGVVQPGRSLRLSCAASGFTFSSYGMHWVRQAPGKGLEWVAVISYDGSNKYYADSVKGRFTISRDNSKNTLYLQMNSLRAEDTAVYYCAKDYGDYGGMDVWGQGTTVTVSS
VL: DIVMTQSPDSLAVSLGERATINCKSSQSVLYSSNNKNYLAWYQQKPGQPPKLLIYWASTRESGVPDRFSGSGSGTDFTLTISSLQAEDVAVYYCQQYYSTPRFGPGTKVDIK

The target in one assay is SARS-CoV-2 spike receptor-binding domain (RBD) (SARS-CoV-2, UniProt P0DTC2 319-541).
A word on the Kd: it is a measure of binding affinity in units of concentration. High values mean lower affinity, low ones higher affinity. For orientation: koff means a measure of how fast the partners let go of each other. In general, kon refers to the second-order rate constant of association. A high value points to faster complex formation. B1 had a Kd of 26.4 nM, an off-rate (koff) of 0.00121 s⁻¹ and an on-rate constant (kon) of 45800 M⁻¹ s⁻¹.
In the same order, the values of B2 are 12 nM, 0.000675 s⁻¹ and 56300 M⁻¹ s⁻¹.

The next assay deals with SARS-CoV-2 spike S1 protein (SARS-CoV-2, UniProt P0DTC2 16-685).
As to B3, the Kd came out at 3.02 nM.
In the case of B4, binding was characterised by a dissociation constant (Kd) of 27.5 nM, the koff was 0.00078 s⁻¹ and the association rate constant (kon) is 28400 M⁻¹ s⁻¹.
In the same order, the values of B5 are 106 nM, 0.00194 s⁻¹ and 18400 M⁻¹ s⁻¹.
B6: binding was characterised by a dissociation constant (Kd) of 36.6 nM, the koff is 0.00276 s⁻¹ and the on-rate (kon) was found to be 75400 M⁻¹ s⁻¹.
The corresponding values for B7 are 4.16 nM, 0.000267 s⁻¹ and 64000 M⁻¹ s⁻¹.
In the same order, the values of B8 are 84 nM, 0.00428 s⁻¹ and 51000 M⁻¹ s⁻¹.

For a further assay the target is unchanged. This is another data set of the same source.
In the case of B1, binding was put at a Kd of 34 nM, the dissociation rate constant (koff) was determined as 0.00128 s⁻¹ and the kon was 37700 M⁻¹ s⁻¹.
B2 came in with an equilibrium dissociation constant (Kd) of 16.7 nM, a koff of 0.000643 s⁻¹ and an on-rate constant (kon) of 38500 M⁻¹ s⁻¹.
